# Experimental data reported in patent publication US8889621B2, “Inhibiting binding of FGF23 to the binary FGFR-Klotho complex for the treatment of hypophosphatemia” (New York University, priority 2009, dated 2014).
# Entries after “also recorded” stand apart in the source; their conditions may differ.
# Assays:
# [1] = test system: C57BL/6 mice; assay: Serum phosphate in C57BL/6 mice after IP injection; assay type: in vivo, mouse; settings: two injections of 5 μg, healthy C57BL/6 mice
# Experimental: The phosphaturic activity of […] was examined in ˜6-week old C57BL/6 mice by a published protocol (Goetz et al., “Molecular Insights into the Klotho-dependent, Endocrine Mode of Action of Fibroblast Growth Factor 19 Subfamily Members,” Mol Cell Biol 27(9):3417-3428 (2007), which is hereby incorporated by reference in its entirety). FGF23^28-251, FGF23^28-200, or vehicle were injected IP into the animals. Each mouse received two injections at 8 h intervals, of 5 μg of protein per injection. Before the first injection and 8 h after the second injection, blood was drawn by cheek-pouch bleeding and spun at 3,000×g for 10 min to obtain serum. Serum phosphate levels were determined using Phosphorus Liqui-UV reagent (Stanbio Laboratory).
# [2] = test system: binary FGFR-Klotho complex; assay: Pull-down / co-precipitation of FGF23 proteins with FGFR-Klotho complex; assay type: binding; settings: HEK293-Klotho cell lysate
# Experimental: A pull-down assay may also be used to confirm the existence of a protein:protein interaction (i.e. FGF23^180-251 binding to the binary FGFR-Klotho complex). One aspect of the present invention utilizes pull-down assays. These assays involved subconfluent cultures of a HEK293 cell line ectopically expressing the FLAG-tagged membrane-spanning form of murine Klotho, which were harvested and lysed. Cell lysate was incubated with FGF23^28-251, FGF23^28-200, FGF23^28-179, FGF23^180-251, or protein sample buffer, and binary complexes of Klotho and endogenous FGFR were isolated from cell lysate using anti-FLAG M2 agarose beads. […]
# In parallel, subconfluent HEK293-Klotho cells (Kurosu et al., “Regulation of Fibroblast Growth Factor-23 Signaling by Klotho,” J Biol Chem 281(10):6120-6123 (2006), which is hereby incorporated by reference in its entirety) were transfected with expression vectors for V5-tagged FGFR1c, FGFR3c, or FGFR4 (Kurosu et al., “Regulation of Fibroblast Growth Factor-23 Signaling by Klotho,” J Biol Chem 281(10):6120-6123 (2006), which is hereby incorporated by reference in its entirety) and binding of FGF23 proteins/peptides to Klotho-FGFR complexes isolated from cell lysate was analyzed. […]
# [3] = test system: tyrosine phosphorylation of FRS2α and downstream activation of MAP kinase cascade; assay: Phosphorylation of FRS2α and 44/42 MAP kinase in CHO Klotho cell line; assay type: cell-based
# Experimental: Subconfluent HEK293-Klotho cells (Kurosu et al., “Regulation of Fibroblast Growth Factor-23 Signaling by Klotho,” J Biol Chem 281(10):6120-6123 (2006), which is hereby incorporated by reference in its entirety) were serum starved for 16 h and then stimulated for 10 min with either FGF23^28-251 (0.33 to 10 nM) or FGF23^180-251 (0.76 to 76.3 nM). In parallel experiments, cells were stimulated with FGF23^28-251 (1 nM) alone or with FGF23^28-251 (1 nM) mixed with increasing concentrations of either FGF23^180-251 (0.76 to 76.3 nM) or FGF23^180-205 (0.1 to 10 μM). Cell stimulation with FGF2 (2.9 nM) alone or FGF2 (2.9 nM) mixed with increasing concentrations of FGF23^180-251 (0.76 to 76.3 nM) served as controls. Similarly, subconfluent cells of a CHO cell line stably expressing Klotho (Imura et al., “Secreted Klotho Protein in Sera and CSF: Implication for Post-translational Cleavage in Release of Klotho Protein from Cell Membrane,” FEBS Lett 565(1-3):143-147 (2004), which is hereby incorporated by reference in its entirety) were treated with either FGF23^28-251 (0.067 to 20 nM) or FGF23^28-200 (0.04 to 12 nM). […]
# binary FGFR-Klotho complex, sequence (O35082 35-1014, one chain of several): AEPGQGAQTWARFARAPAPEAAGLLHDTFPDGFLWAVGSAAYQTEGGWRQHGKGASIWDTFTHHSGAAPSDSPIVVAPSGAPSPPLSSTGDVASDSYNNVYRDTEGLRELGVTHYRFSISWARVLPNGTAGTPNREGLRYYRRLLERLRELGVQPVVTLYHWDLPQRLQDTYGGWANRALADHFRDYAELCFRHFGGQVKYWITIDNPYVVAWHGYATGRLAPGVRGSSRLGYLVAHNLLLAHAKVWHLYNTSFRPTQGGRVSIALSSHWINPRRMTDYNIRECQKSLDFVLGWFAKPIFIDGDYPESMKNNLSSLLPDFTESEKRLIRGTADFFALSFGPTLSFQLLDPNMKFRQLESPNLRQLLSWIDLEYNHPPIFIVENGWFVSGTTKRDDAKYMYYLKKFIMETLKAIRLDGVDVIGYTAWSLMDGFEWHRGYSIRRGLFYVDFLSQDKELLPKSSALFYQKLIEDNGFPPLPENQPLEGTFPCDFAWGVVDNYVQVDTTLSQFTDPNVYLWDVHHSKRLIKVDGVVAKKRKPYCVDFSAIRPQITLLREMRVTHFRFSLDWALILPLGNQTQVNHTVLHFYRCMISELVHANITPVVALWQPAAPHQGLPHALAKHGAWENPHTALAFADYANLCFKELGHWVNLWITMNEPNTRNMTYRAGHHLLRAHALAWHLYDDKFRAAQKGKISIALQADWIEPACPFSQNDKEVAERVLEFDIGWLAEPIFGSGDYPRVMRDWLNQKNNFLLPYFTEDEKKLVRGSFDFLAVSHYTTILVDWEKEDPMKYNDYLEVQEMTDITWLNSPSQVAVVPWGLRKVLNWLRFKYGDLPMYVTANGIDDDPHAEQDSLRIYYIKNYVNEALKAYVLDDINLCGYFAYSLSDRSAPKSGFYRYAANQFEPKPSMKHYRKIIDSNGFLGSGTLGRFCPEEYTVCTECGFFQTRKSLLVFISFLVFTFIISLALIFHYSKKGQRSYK
molecule,measurement,setting,value
"FGF23^28-200: C-terminally truncated FGF23 protein (A28 to T200), lacks the last 51 C-terminal amino acids (protein) ASPLLGSSWGGLIHLYTATARNSYHLQIHKNGHVDGAPHQTIYSALMIRSEDAGFVVITGVMSRRYLCMDFRGNIFGSHYFDPENCRFQHQTLENGYDVYHSPQYHFLVSLGRAKRAFLPGMNPPPYSQFLSRRNEIPLIHFNTPIPRQHTQSAEDDSERDPLNVLKPRARMT",reduction of serum phosphate concentration (phosphaturic activity),[1],nearly as effective as the full-length ligand; also recorded: exhibits phosphaturic activity
same,co-precipitation with the binary FGFR-Klotho complex,[2],still retains the ability to co-immunoprecipitate
same,induction of phosphorylation of FRS2α and activation of MAP kinase cascade,[3],at a dose comparable to that of FGF23^28-251
